Results from the nanobody polyreactivity screen of Harvey et al. (2022).

Assay: yeast display, Sf9 membrane polyspecificity reagent, FACS + sequencing; frameworks hold sequencing errors
In short: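 A nanobody's polyreactivity label depends on the gate it was sorted from. Yeast display cells were stained with 10% biotinylated, detergent-solubilized Sf9 membrane reagent for 1 hour at 4 °C, enriched on streptavidin microbeads and sorted by FACS. The low and high (top ~1%) gates were set on anti-HA fluorescence for expression and streptavidin fluorescence for reagent binding.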

| Sequence | polyreactivity (PSR sort gate) |
| --- | --- |
| QVQLVESGGGLVQAGGSLRLSCAASGNTFYPNAMGWYRQAPGKERELVAAITTSGGTTYYADSVKGRFTISRDNAKNTVYLQMNSLKPEDTAVYYCAAYWSRDKYDYWGQGTQVTVSS | low polyreactivity |
| QVQLVESGGGLVQAGGSLRLSCAASGNTFYRYAMGWYRQAPGKERELVAAISWSGSSTYYADSVKGRFTISRDNAKNTVYLQMNSLKPEDTAVYYCAVYYTRIGPRYDYWGQGTQVTVSS | high polyreactivity |
| QVQLVESGGGLVQAGGSLRLSCAASGNTFYSYAMGWYRQAPGKERELVAAITWGGRRKFADSVKGRFTSSRDNAKITVYLQMNSLKPEDTAVYYCAARLFHGKTKFDYSGQGTQVTVSS | high polyreactivity |
| QVQLVESGGGLVQAGGSLRLSCAASGNTFYVYAMGWYRQAPGKERELVADITWSGGSTYYADSVKGRFTISRDNAKNTVYLQMNSLKPEDTAVYYCNADYYYQLWELEYYYWGQGTQVTVSS | high polyreactivity |
| QVQLVESGGGLVQAGGSLRLSCAASGNTIHWNFMGWYRQATGKERELVATITFSGSSTYYADSVKGRFTISRDNAKNTVYLQMNSLKPEDTAVYYCAKDFLGDGTSIEYGGSEYDYWGQGTQVTVSS | low polyreactivity |
| QVQLVESGGGLVQAGGSLRLSCAASGNTINVNTMGWYRQAPGKERDLVAAISKRGGSTYYADSVKGRFTISRDNAKNTVYLQMNSLKPEDTAVYYCDKQVSLPRYHYGSAPYGYWGQGTQVTVSS | high polyreactivity |
| QVQLVESGGGLVQAGGSLRLSCAASGNTLDWYAMGWYRQAPGKERELVAAISSAGSTSYADSVKGRFTISRDNAKNTVYLQMNSLKPEDTAVYYCNVDVYSKDANFQSFASEYDYWGQGTQVTVSS | low polyreactivity |
| QVQLVESGGGLVQAGGSLRLSCAASGNTLRYYAMGWYRQAPGKERELVAAITRRGGSTYADSVKGRFTISRDNAKNTVYLQMNSLKPEDTAVYYCNRVLYDHSFPYNRGYDYWGQGTQVTVSS | high polyreactivity |
| QVQLVESGGGLVQAGGSLRLSCAASGNTLYQYAMGWYRQAPGKERELVASITWSGSSTYYADSVKGRFTISRDNAKNTDDLQMNSLKPEDPAVYYCAAVVYYTFDYCGQGTQVTVSS | low polyreactivity |
| QVQLVESGGGLVQAGGSLRLSCAASGNTVNFYAMGWYREAPGKERELVASITSGGGTNYADSVKGRFTISRDNAKNTVYLQMNSLKPEETAVYFCAAQFYYHFRFHCDWGQGTQVTVSS | low polyreactivity |
| QVQLVESGGGLVQAGGSLRLSCAASGPIFGFNAMGWYRQAPGKERELVARISSVGSTNYADSVKGRFTISRDNAKNTVYLQMNSLKPEDTAVYYCAAKRYYTQSSYYLALYDYWGQGTQVTVSS | low polyreactivity |
| QVQLVESGGGLVQAGGSLRLSCAASGPIFSDYTMGWYRQAPGKERELVAVISRRGTSTYYADSVKGRFTISRDNAKNTVDLQMNSLKPEDTAVYYCAADDNTYKFYYWGQGTQVTVSS | high polyreactivity |
| QVQLVESGGGLVQAGGSLRLSCAASGQIFYTNTMGWYRQAPGKERELVAAINSGDRTYYADSVKGRFTISRDNAKNTVYLQMNSLKPEDTAVYYCAARNYATAVRYDYWGQGTQVTVSS | high polyreactivity |
| QVQLVESGGGLVQAGGSLRLSCAASGQTFPFYTKGWYRQAPGKERELVGAISRRGGSTYYADSVKGRFTISRDNAKYTVYLQMKSLKPEDTAVYYCAADKYSWYDYWGQGTQVTVSS | low polyreactivity |
| QVQLVESGGGLVQAGGSLRLSCAASGRFFKSYAMGWYRQAPGKERELVAAISRSDDTTYYADSVKGRFTISRDNAKNTVYLQMNSLKPEDTAVYYCAADTWRDGDDYWGQGTQVTVSS | low polyreactivity |
| QVQLVESGGGLVQAGGSLRLSCAASGRICSQYAMGWYRQAPGKERELVAAISTSGDRTYYADSVKGRFTISRDNAQNSGYLQLNSLKPEDTAVYYCAKDGPYTYGRDIYEYWGQGTQVTVSS | low polyreactivity |
| QVQLVESGGGLVQAGGSLRLSCAASGRICWYYGLGWYRQAPGKERELVAAITTGGSTYADSVKGRFTISRDNAKNTVYLQMNSLKPEDPAVYYCAADGSYVWRNGWTYFYWGQGTQVTVSS | high polyreactivity |
| QVQLVESGGGLVQAGGSLRLSCAASGRIDRPYAMGLYRPAPGKERELVAAISRRGGSTYYADSVKGRFTISRDNAKNTVYLQMKSLKPEDTAVYYCAADYWYESLRLQGIQGLDYWGQGTQVTVSS | high polyreactivity |
| QVQLVESGGGLVQAGGSLRLSCAASGRIFAANAMGWYRQAPGKERELVATISTGGGRTYYADSVKGRFTISRDNAKNTVYLQMNSLKPEDTAVYYCAASRGYLVPTRLAYYYWGQGTQVTVSS | high polyreactivity |
| QVQLVESGGGLVQAGGSLRLSCAASGRIFADNAMGWYRQAPGKERELVADITYSGGSTYYADSVKGRFTISRDNAKNTVYLQMNSLKPEDTAVYSCAKQGVDYWGQGTQVTVSS | low polyreactivity |

| Sequence | polyreactivity (PSR sort gate) |
| --- | --- |
| QVQLVESGGGLVQAGGSLRLSCAASGRIFADYAMGWYRQAPGKERELVADIRQSGGRTYYADSVKGRFTISRDNAKNTVYFQINRLKPEDTAVYYCATDYGSWGDYSGKYDYWGQGTQVTVSS | low polyreactivity |
| QVQLVESGGGLVQAGGSLRLSCAASGRIFADYAMGWYRQAPGKERELVADIRQSGGRTYYADSVKGRFTISRDNAKNTVYLQMNSLNPEDTAVYYCATDYGSWGDYSGKYDYWGQGTQVTVSS | low polyreactivity |
| QVQLVESGGGLVQAGGSLRLSCAASGRIFAFNAMGWYRQAPGTESELVAAINWSGTTTYYADSVKGRFTISRDNAKNTVYLQMNSLKPEDTAVYYCAADVTFRGYAKYYYWGQGTQVTVSS | low polyreactivity |
| QVQLVESGGGLVQAGGSLRLSCAASGRIFAFYAMGWYRQAPGKERELVAAISWSGGSTYYADSVKGRFTISRDNAKNTVYLQMNSLKPEDTAVYYCAAYRTRGSAYPYDYWGQGTQVTVSS | high polyreactivity |
| QVQLVESGGGLVQAGGSLRLSCAASGRIFAFYTMGWYIQAPGKERELVAAITRRSGSTYYADSVKGRFTISRDNAKNTVYLQMNSLKPEDTAVYYCAVDTYIYTNRRYTKFDYWGQGTQVTVSS | low polyreactivity |
| QVQLVESGGGLVQAGGSLRLSCAASGRIFAGNAMGWYRQAPGKERELVAVISKGGGRTYYADSVKGRFTFSRDNAKNTVYLQMNSLKPEDTAVYYCAVRTLQRGKHDLGVDYWGQGTHVTVSS | high polyreactivity |
| QVQLVESGGGLVQAGGSLRLSCAASGRIFAGNTKGWYRQAPGKERELVAAITSSGGSTYYADSVKGRFTISRDNANTTVYLQMNSLKPEDTAVYYPIVYYVKYYYWGQGTQVTVSS | high polyreactivity |
| QVQLVESGGGLVQAGGSLRLSCAASGRIFAGYALGWYRQAPGKERELVAAITFRSGTTYYADSVKGRFTISRDNAKNTVYLQMHSLKPEDTAVYYCAARWGPYAFTYVRTYDYWGQGTQVTGSS | low polyreactivity |
| QVQLVESGGGLVQAGGSLRLSCAASGRIFAGYAMGWYRQAPGKERELVAAISKRGGSTYYADSVKGRFTISRDKAKNTVYLQMNSLKPEDTAVYYCAADTGYPNGQGQGYQNFGGYYWGQGTQVTVSS | high polyreactivity |
| QVQLVESGGGLVQAGGSLRLSCAASGRIFAGYGMGWYRQAPGKERELVAAISSGGSTYYADSVKGRFTISRDNAKNTVYLQMNSLKPEDTAVYYCATDGQSVPDDYYQNVDYDYWGQGTQVTVSS | low polyreactivity |
| QVQLVESGGGLVQAGGSLRLSCAASGRIFAHYAMGWYRQAPGKEMELFATISLSVGSTYYADSVKGRFTISRDNAKNTVYLQMNSLKPEDTSVYYCNATGYYATSHITYDYWGQVTQVTVSS | low polyreactivity |
| QVQLVESGGGLVQAGGSLRLSCAASGRIFAKYAMGWYRQAPGTERELVAAISWGGGSTYYADSVKGRFTISRDNAKNTVYLQMNSLKPEDTAVYYCAARIPKQRDVRGSGMNYWGQGTQVTVSS | high polyreactivity |
| QVQLVESGGGLVQAGGSLRLSCAASGRIFANNAMGWYRQAPGKERELVAAINWSGSRTYYADSVKGRFTISRDNAKNTVYLQMNSLNPEDTAVYYCAAVGRWGVTGSHHDAYDYWGQGTQVTVSS | high polyreactivity |
| QVQLVESGGGLVQAGGSLRLSCAASGRIFANYAMGWYRQAPGKERELVAGITTGGSTYYADSVKGRFTISRDNAKNTVYLQMNSLKPVDTAVYYCAVRWRNRLYYYWGQGTQVTVSS | high polyreactivity |
| QVQLVESGGGLVQAGGSLRLSCAASGRIFAPKAMGWYRQAPGKERELVATITWSGGSTYYADSVKGRFTISRDNAKNSVYLQMNSLNPEDTAVYYCAAETQIRLWSLQYRYYYWGQGTQVTVSS | low polyreactivity |
| QVQLVESGGGLVQAGGSLRLSCAASGRIFAPYAMGWYRQAPGKERELVAAIDGSGGSTYYADSVKGRFTISRDNAKNTVYLQMNSLKPEDTAVYYCATRGSYRSQRWYGYWGQGTQVTVSS | high polyreactivity |
| QVQLVESGGGLVQAGGSLRLSCAASGRIFAQYALGWYRQAPGKERELVAGIDRRGGSTYYADSVKGRFTISRDNAKNTVYLQMNSLKPEDTAVYYCNALREDPLFFVYIGGGYWGQGTQVTVSS | low polyreactivity |
| QVQLVESGGGLVQAGGSLRLSCAASGRIFAQYAMGWYRQAPGKDRELVADISSGVRTYADSVKGRFTISRDNAKNTVYLQMNSLKPEDTAVYYCNAYYIIFTRNDYWGQGTQVNVSS | low polyreactivity |
| QVQLVESGGGLVQAGGSLRLSCAASGRIFAQYAMGWYRQAPGKEREFVAAITGSTDSTYYADSVKGRFTISRDNAKNTVYLQMNSLKPEDTAVYYCAKDDAYSTIIDYEYSYDYWGQGTQVTVSS | high polyreactivity |
| QVQLVESGGGLVQAGGSLRLSCAASGRIFARNAMGWYIQAPGKEREFVAAITHSGGNTYYADSVKGRFTISRDNAKKTVYLQMNSLKPEDTAVYYCAKEYRSTKYDYWGQGTQVTVSS | low polyreactivity |
